Data published in paper PMC12412624, “Engineered Cas12j‐8 is a Versatile Platform for Multiplexed Genome Modulation in Mammalian Cells”.

Test system: T1, dCas12j-8 E258R+D313R+E547R E258R;D313R;E547R;D369A;E567A;D658A (bacteriophage (metagenome))
T1 sequence: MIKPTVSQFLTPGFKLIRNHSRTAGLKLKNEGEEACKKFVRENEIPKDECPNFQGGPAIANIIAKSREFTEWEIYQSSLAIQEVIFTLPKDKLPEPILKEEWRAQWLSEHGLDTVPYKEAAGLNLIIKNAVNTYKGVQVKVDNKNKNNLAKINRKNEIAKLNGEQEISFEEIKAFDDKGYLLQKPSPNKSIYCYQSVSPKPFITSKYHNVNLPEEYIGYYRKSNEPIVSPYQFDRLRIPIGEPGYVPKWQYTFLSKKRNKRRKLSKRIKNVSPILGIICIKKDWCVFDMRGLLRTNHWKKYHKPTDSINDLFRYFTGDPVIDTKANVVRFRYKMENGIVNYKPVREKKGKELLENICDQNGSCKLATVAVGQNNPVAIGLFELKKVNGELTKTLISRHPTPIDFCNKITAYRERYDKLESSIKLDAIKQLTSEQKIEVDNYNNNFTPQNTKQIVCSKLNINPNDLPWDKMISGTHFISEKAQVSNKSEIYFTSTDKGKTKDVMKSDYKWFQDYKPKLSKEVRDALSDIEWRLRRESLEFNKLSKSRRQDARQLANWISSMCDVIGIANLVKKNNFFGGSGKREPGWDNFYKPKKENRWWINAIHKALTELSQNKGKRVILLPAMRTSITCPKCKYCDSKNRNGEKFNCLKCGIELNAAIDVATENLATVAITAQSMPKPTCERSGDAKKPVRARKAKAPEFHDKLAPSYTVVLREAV
Settings: HEK293T cells; panel 1e (compare within a panel only); scale: mean GFP / mean GFP of wild type, printed, no background subtraction

Q: “CUUUCAAGACUAAUAGAUUGCUCCUUACGAGGAGACACUCCCUAUCAGUGAUAGAG / TTNACTCCCTATCAGTGATAGAG / CTCTATCACTGATAGGGAGTNAA [TetO]” was tested. Which binding signal did it give?
A: Its binding signal is 3.99.
